Ends that are not written are not given here. * marks the point of attachment. Cholyl = C[C@H](CCC(=O)*)[C@H]1CC[C@H]2[C@@H]3[C@H](O)C[C@@H]4C[C@H](O)CC[C@]4(C)[C@H]3C[C@H](O)[C@]12C; iminobiotinyl = N=C1N[C@H]2[C@H](CS[C@H]2CCCCC(=O)*)N1
B1: cholyl-Aβ15-20 (peptide)
peptide: Cholyl-QKLVFF-OH
SMILES: CC(C)C[C@H](NC(=O)[C@H](CCCCN)NC(=O)[C@H](CCC(N)=O)NC(=O)CC[C@@H](C)[C@H]1CC[C@H]2[C@@H]3[C@H](O)C[C@@H]4C[C@H](O)CC[C@]4(C)[C@H]3C[C@H](O)[C@]12C)C(=O)N[C@H](C(=O)N[C@@H](Cc1ccccc1)C(=O)N[C@@H](Cc1ccccc1)C(=O)O)C(C)C
B2: cholyl-Aβ6-10-amide (peptide)
peptide: Cholyl-HDSGY-NH2
SMILES: C[C@H](CCC(=O)N[C@@H](Cc1c[nH]cn1)C(=O)N[C@@H](CC(=O)O)C(=O)N[C@@H](CO)C(=O)NCC(=O)N[C@@H](Cc1ccc(O)cc1)C(N)=O)[C@H]1CC[C@H]2[C@@H]3[C@H](O)C[C@@H]4C[C@H](O)CC[C@]4(C)[C@H]3C[C@H](O)[C@]12C
B3: cholyl-Aβ6-20-amide (peptide)
peptide: Cholyl-HDSGYEVHHQKLVFF-NH2
SMILES: CC(C)C[C@H](NC(=O)[C@H](CCCCN)NC(=O)[C@H](CCC(N)=O)NC(=O)[C@H](Cc1c[nH]cn1)NC(=O)[C@H](Cc1c[nH]cn1)NC(=O)[C@@H](NC(=O)[C@H](CCC(=O)O)NC(=O)[C@H](Cc1ccc(O)cc1)NC(=O)CNC(=O)[C@H](CO)NC(=O)[C@H](CC(=O)O)NC(=O)[C@H](Cc1c[nH]cn1)NC(=O)CC[C@@H](C)[C@H]1CC[C@H]2[C@@H]3[C@H](O)C[C@@H]4C[C@H](O)CC[C@]4(C)[C@H]3C[C@H](O)[C@]12C)C(C)C)C(=O)N[C@H](C(=O)N[C@@H](Cc1ccccc1)C(=O)N[C@@H](Cc1ccccc1)C(N)=O)C(C)C
B4: cholyl-Aβ6-17-amide (peptide)
peptide: Cholyl-HDSGYEVHHQKL-NH2
SMILES: CC(C)C[C@H](NC(=O)[C@H](CCCCN)NC(=O)[C@H](CCC(N)=O)NC(=O)[C@H](Cc1c[nH]cn1)NC(=O)[C@H](Cc1c[nH]cn1)NC(=O)[C@@H](NC(=O)[C@H](CCC(=O)O)NC(=O)[C@H](Cc1ccc(O)cc1)NC(=O)CNC(=O)[C@H](CO)NC(=O)[C@H](CC(=O)O)NC(=O)[C@H](Cc1c[nH]cn1)NC(=O)CC[C@@H](C)[C@H]1CC[C@H]2[C@@H]3[C@H](O)C[C@@H]4C[C@H](O)CC[C@]4(C)[C@H]3C[C@H](O)[C@]12C)C(C)C)C(N)=O
B5: cholyl-Aβ6-19-amide (PPI-321 as printed in Table III) (peptide)
peptide: Cholyl-HDSGYEVHHQKLVF-NH2
SMILES: CC(C)C[C@H](NC(=O)[C@H](CCCCN)NC(=O)[C@H](CCC(N)=O)NC(=O)[C@H](Cc1c[nH]cn1)NC(=O)[C@H](Cc1c[nH]cn1)NC(=O)[C@@H](NC(=O)[C@H](CCC(=O)O)NC(=O)[C@H](Cc1ccc(O)cc1)NC(=O)CNC(=O)[C@H](CO)NC(=O)[C@H](CC(=O)O)NC(=O)[C@H](Cc1c[nH]cn1)NC(=O)CC[C@@H](C)[C@H]1CC[C@H]2[C@@H]3[C@H](O)C[C@@H]4C[C@H](O)CC[C@]4(C)[C@H]3C[C@H](O)[C@]12C)C(C)C)C(=O)N[C@H](C(=O)N[C@@H](Cc1ccccc1)C(N)=O)C(C)C
B6: cholyl-Aβ14-20 (peptide)
peptide: Cholyl-HQKLVFF-OH
SMILES: CC(C)C[C@H](NC(=O)[C@H](CCCCN)NC(=O)[C@H](CCC(N)=O)NC(=O)[C@H](Cc1c[nH]cn1)NC(=O)CC[C@@H](C)[C@H]1CC[C@H]2[C@@H]3[C@H](O)C[C@@H]4C[C@H](O)CC[C@]4(C)[C@H]3C[C@H](O)[C@]12C)C(=O)N[C@H](C(=O)N[C@@H](Cc1ccccc1)C(=O)N[C@@H](Cc1ccccc1)C(=O)O)C(C)C
B7: cholyl-Aβ6-14-amide (peptide)
peptide: Cholyl-HDSGYEVHH-NH2
SMILES: CC(C)[C@H](NC(=O)[C@H](CCC(=O)O)NC(=O)[C@H](Cc1ccc(O)cc1)NC(=O)CNC(=O)[C@H](CO)NC(=O)[C@H](CC(=O)O)NC(=O)[C@H](Cc1c[nH]cn1)NC(=O)CC[C@@H](C)[C@H]1CC[C@H]2[C@@H]3[C@H](O)C[C@@H]4C[C@H](O)CC[C@]4(C)[C@H]3C[C@H](O)[C@]12C)C(=O)N[C@@H](Cc1c[nH]cn1)C(=O)N[C@@H](Cc1c[nH]cn1)C(N)=O
B8: Cholyl-penta-alanine (peptide)
peptide: Cholyl-AAAAA-OH
SMILES: C[C@H](NC(=O)[C@H](C)NC(=O)[C@H](C)NC(=O)[C@H](C)NC(=O)[C@H](C)NC(=O)CC[C@@H](C)[C@H]1CC[C@H]2[C@@H]3[C@H](O)C[C@@H]4C[C@H](O)CC[C@]4(C)[C@H]3C[C@H](O)[C@]12C)C(=O)O
B9: cholyl-Aβ16-20 (Phe19->Ala) (peptide)
peptide: Cholyl-KLVAF-OH
SMILES: CC(C)C[C@H](NC(=O)[C@H](CCCCN)NC(=O)CC[C@@H](C)[C@H]1CC[C@H]2[C@@H]3[C@H](O)C[C@@H]4C[C@H](O)CC[C@]4(C)[C@H]3C[C@H](O)[C@]12C)C(=O)N[C@H](C(=O)N[C@@H](C)C(=O)N[C@@H](Cc1ccccc1)C(=O)O)C(C)C
B10: cholyl-Aβ17-21 (peptide)
peptide: Cholyl-LVFFA-OH
SMILES: CC(C)C[C@H](NC(=O)CC[C@@H](C)[C@H]1CC[C@H]2[C@@H]3[C@H](O)C[C@@H]4C[C@H](O)CC[C@]4(C)[C@H]3C[C@H](O)[C@]12C)C(=O)N[C@H](C(=O)N[C@@H](Cc1ccccc1)C(=O)N[C@@H](Cc1ccccc1)C(=O)N[C@@H](C)C(=O)O)C(C)C
B11: cholyl-Aβ15-19 (peptide)
peptide: Cholyl-QKLVF-OH
SMILES: CC(C)C[C@H](NC(=O)[C@H](CCCCN)NC(=O)[C@H](CCC(N)=O)NC(=O)CC[C@@H](C)[C@H]1CC[C@H]2[C@@H]3[C@H](O)C[C@@H]4C[C@H](O)CC[C@]4(C)[C@H]3C[C@H](O)[C@]12C)C(=O)N[C@H](C(=O)N[C@@H](Cc1ccccc1)C(=O)O)C(C)C

Biological target: natural β-amyloid peptide β-AP1-40 (human)
Test: cell-based or functional assay

Binder | Fold Increase in Lag Time; nucleation assay; 38 mole % [fold] | % Inhibition of Plateau; nucleation assay; 33 mole % [%] | % Inhibition of Plateau; nucleation assay; 100 mole % [%] | Fold Increase in Lag Time; nucleation assay; 33 mole % [fold] | Fold Increase in Lag Time; nucleation assay; 100 mole % [fold]
Cholyl-KLVFF-OH [cholyl-Aβ16-20] | 3.4 | – | – | – | –
Cholyl-DSGYEVHHQKLVFF [cholyl-Aβ7-20] | – | ~0 | 100 | 2 | > 4.5
B1 | – | 50 | – | 2.3 | –
B2 | – | 13 | – | 1.1 | –
B3 | – | ~0 | – | 1.8 | –
B4 | – | ~0 | – | 1.8 | –
B5 | – | ~0 | – | 1.4 | –
Cholyl-HHQKLVFF [cholyl-Aβ13-20] | – | ~0 | – | 2.6 | –
B6 | – | 49 | – | 2 | –
B7 | – | 29 | – | 1 | –

Biological target: natural β-amyloid peptide β-AP1-40 (human)
Test: cell-based or functional assay
Remark: another data set of the same source

Binder | % Inhibition of Plateau; nucleation assay; 100 mole % [%] | Fold Increase in Lag Time; nucleation assay; 100 mole % [fold] | % Inhibition of Plateau; nucleation assay; 10 mole % [%] | Fold Increase in Lag Time; nucleation assay; 10 mole % [fold] | Fold Increase in Lag Time; nucleation assay; 33 mole % [fold]
iminobiotinyl-KLVFF-OH [iminobiotinyl-Aβ16-20] | 86 | 1.3 | – | – | –
Cholyl-KLVFF-OH [cholyl-Aβ16-20] | 100 | > 5 | 40 | 2.4 | –
B1 | 100 | > 5 | ~0 | 2.1 | 2.6
B8 | ~0 | ~1 | – | – | –
B9 | 73 | 2.6 | – | – | –
H-KLVFF-OH [unmodified Aβ16-20] | ~0 | ~1 | – | – | –
B10 | 100 | > 5 | – | – | –
Cholyl-HHQKLVFF [cholyl-Aβ13-20] | – | – | 57 | 2.2 | –
B11 | ~0 | 3.1 | ~0 | 1.6 | –
Cholyl-KLTFF [cholyl-Aβ16-20 (Val18->Thr)] | ~0 | ~1 | – | – | –
Cholyl-KLVFF-NH2 [cholyl-Aβ16-20-amide] | – | – | ~0 | 2.7 | 5.6

Biological target: natural β-amyloid peptide β-AP1-40 (human)
Test: cell-based or functional assay
Remark: another data set of the same source
Target sequence in this assay (peptide, as listed by the source): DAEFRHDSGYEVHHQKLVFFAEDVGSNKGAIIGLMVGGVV

Binder | % Iext'n; seeded extension assay; 25 mole % [%] | % Inucl'n; nucleation assay; 100 mole % [%] | ΔLag; nucleation assay; 100 mole % [ratio] | % Inucl'n; nucleation assay; 33 mole % [%] | ΔLag; nucleation assay; 33 mole % [ratio]
iminobiotinyl-KLVFF-OH [iminobiotinyl-Aβ16-20] | 0 | 86 | 1.3 | – | –
Cholyl-KLVFF-OH [cholyl-Aβ16-20] | 11 | 72 | 1.8 | – | –
B1 | 56 | 100 | > 5 | – | –
B2 | – | -18 | 1.1 | – | –
B8 | 0 | -7 | 0.8 | – | –
B9 | 31 | 73 | 2.6 | – | –
H-KLVFF-OH [unmodified Aβ16-20] | 8 | 0 | 1.1 | – | –
B10 | 91 | 100 | > 5 | – | –
B11 | – | -23 | 3.1 | – | –
Cholyl-KLTFF [cholyl-Aβ16-20 (Val18->Thr)] | 44 | -16 | 1.1 | – | –
Cholyl-KLVFF-NH2 [cholyl-Aβ16-20-amide] | 52 | 70 | 5.4 | – | –
B6 | – | – | – | 70 | 2
